Results as given in patent US20200399712A1, “COMPOSITIONS AND METHODS FOR THE DIAGNOSIS AND DETECTION OF TUMORS AND CANCER PROGNOSIS” (priority 2018, published 2020).
Entries after “also recorded” stand apart in the source; their conditions may differ. Marks after values point to notes of the source that are not given here.

Tests used:
HPV-16 genome = assay: qPCR sensitivity against HPV-16 copy number (known-copy HPV-16 DNA among 10 ng normal human DNA); details: for reaction under 10 copies of HPV-16 genome / reaction under 30 copies of HPV-16 genome: among 10 ng normal DNA, triplicate qPCR
HPV-16 [1] = assay: qPCR on 20 ng DNA from saliva samples of HPV-HNSCC patients
Experimental: All samples were run in triplicates.
The sensitivity of detection from saliva 20 ng DNA samples is 32.1% (9/28) in E6 primer-probe sets, 42.9% (12/28) in E7 primer-probe sets, 35.7% (10/28) in “Min-5” primer-probe sets, 46.4% (13/28) in “Max-10” primer-probe sets. The sensitivity of combination of “5” and “10” is 50% (14/28) and that of E6 and E7 is 42.9% (12/28). By the standard curve analysis, the copy numbers that detected by “Max-10” primer-probe sets were the highest in these 4 primer-probe sets. The slope of standard curve is −3.5 in “Min-5” primer-probe sets when delta Rn is plotted against cycle threshold (FIG. 5).

HPV16 DNA [2] = assay: CLIA test for HPV16, performance characteristics in plasma
From the text: (§1) These primer/probe sets were adapted for development of a CLIA test for HPV16 DNA detection in plasma and salivary rinses (Table 2). Test performance was improved, so that analytical sensitivity in salivary rinse spike in assays ranges from 2.5-5.0 DNA copies/mL with 100% specificity for the three primer/probe sets that are now part of the component assay, resulting in a five-fold improvement in analytic sensitivity that is in the range of sensitivity found in sequence based liquid biopsy methods (FIG. 23, Table 2). Additionally, the assays can be used quantitatively, with measuring ranges between 2.0 log10-7.0 log10 copies/mL.

HPV16 DNA [3] = assay: CLIA test for HPV16, performance characteristics in salivary rinse
From the text: as §1

HPV DNA = assay: CLIA HPV test pilot study on saliva rinse samples from HPV-positive HNSCC patients and non-cancer controls; parameters: species or system HPV16; HPV16 DNA measured by CLIA HPV test: unit not given here
Experimental: As a final validation, Applicants a small pilot study was performed on a blinded set of saliva rinse samples from 28 patients with HPV-positive HNSCC and 15 salivary rinses from non-cancer controls. […] The sensitivity increased to 96% when all three sets were used (Table 3).

HPV-16 [4] = assay: qPCR sensitivity against HPV-HNSCC tumor samples diluted among 10 ng normal human DNA
[5] = samples tested 3 times, 10 ng DNA from healthy individual
[6] = first template ('... HPV16', word is an image)
[7] = second template (name is an image)
[8] = tumor DNA dilution, fraction of 32 samples

B1: BR E1-5: HPV-16 E1 region primer/probe set, SEQ ID NO: 40-42 (same as SEQ ID NO: 1-3) (nucleic acid)
DNA 1: GCACAATTGGCAGACACTAAT
DNA 2: GCACAATCCTTTACAATTTTTGCC
DNA 3: AGTAATGCAAGTGCCTTTCTAAAAAGTAATTC
modifications: chemistry not given here
reaction under 10 copies of HPV-16 genome (HPV-16 genome): consistent detection
reaction under 30 copies of HPV-16 genome (HPV-16 genome): consistently amplified
reaction under 10 copies of HPV-16 genome (HPV-16 genome; listed as Min-5): consistently triplicate reaction; also recorded: could detect
reaction under 30 copies of HPV-16 genome (HPV-16 genome; listed as Min-5): react consistently
number of reactions against 10 HPV-16 copies (HPV-16 genome; [5]): 3 reactions
number of reactions under 30 HPV-16 copies (HPV-16 genome; [5]): 3 reactions
sensitivity of detection from saliva 20 ng DNA samples (HPV-16 [1]; 28 HPV-HNSCC saliva samples): 35.7%
slope of standard curve (delta Rn plotted against cycle threshold) (HPV-16 [1]; RT-PCR, 20 ng DNA from HPV-HNSCC saliva samples (FIG. 5)): −3.5
Accuracy - Plasma Blind Panel, Negative % Agreement (HPV16 DNA [2]): 100%
Accuracy - Plasma Blind Panel, Positive % Agreement (HPV16 DNA [2]): 100%
Accuracy - Plasma Blind Panel, Total % Agreement (HPV16 DNA [2]): 100%
Measuring Range - Plasma (HPV16 DNA [2]; first template ('... HPV16')): 2.0-8.5 log10 log10 copies/mL
Limit of Detection - Plasma (HPV16 DNA [2]; [6]): 1.5 copies/mL
Limit of Detection - Plasma (HPV16 DNA [2]; [7]): 22 copies/mL
Measuring Range - Plasma (HPV16 DNA [2]; [7]): 2.0-6.5 log10 log10 copies/mL
Measuring Range - Salivary Rinse (HPV16 DNA [3]; first template ('... HPV16')): 2.0-8.5 log10 log10 copies/mL
Limit of Detection - Salivary rinse (HPV16 DNA [3]; [6]): 3 copies/mL
Limit of Detection - Salivary rinse (HPV16 DNA [3]; [7]): 12 copies/mL
Measuring Range - Salivary Rinse (HPV16 DNA [3]; [7]): 2.0-6.5 log10 log10 copies/mL
sensitivity for the detection of HPV DNA in saliva rinse samples (HPV DNA; 28 patients with HPV-positive HNSCC): 79%
HPV16 DNA measured by CLIA HPV test (HPV DNA; saliva sample from HPV-HNSCC patient # 1): 866000
HPV16 DNA measured by CLIA HPV test (HPV DNA; saliva sample from HPV-HNSCC patient # 2): 118000
HPV16 DNA measured by CLIA HPV test (HPV DNA; saliva sample from HPV-HNSCC patient # 3): 47600
HPV16 DNA measured by CLIA HPV test (HPV DNA; saliva sample from HPV-HNSCC patient # 4): 104000
HPV16 DNA measured by CLIA HPV test (HPV DNA; saliva sample from HPV-HNSCC patient # 7): 9790
HPV16 DNA measured by CLIA HPV test (HPV DNA; saliva sample from HPV-HNSCC patient # 8): 3590
HPV16 DNA measured by CLIA HPV test (HPV DNA; saliva sample from HPV-HNSCC patient # 9): 2600
HPV16 DNA measured by CLIA HPV test (HPV DNA; saliva sample from HPV-HNSCC patient # 12): 127
HPV16 DNA measured by CLIA HPV test (HPV DNA; saliva sample from HPV-HNSCC patient # 13): 290
HPV16 DNA measured by CLIA HPV test (HPV DNA; saliva sample from HPV-HNSCC patient # 14): 114
HPV16 DNA measured by CLIA HPV test (HPV DNA; saliva sample from HPV-HNSCC patient # 15): 160
HPV16 DNA measured by CLIA HPV test (HPV DNA; saliva sample from HPV-HNSCC patient # 16): 121
HPV16 DNA measured by CLIA HPV test (HPV DNA; saliva sample from HPV-HNSCC patient # 17): 67.4
HPV16 DNA measured by CLIA HPV test (HPV DNA; saliva sample from HPV-HNSCC patient # 18): 15.8
HPV16 DNA measured by CLIA HPV test (HPV DNA; saliva sample from HPV-HNSCC patient # 19): 61.1
HPV16 DNA measured by CLIA HPV test (HPV DNA; saliva sample from HPV-HNSCC patient # 20): 30.9
HPV16 DNA measured by CLIA HPV test (HPV DNA; saliva sample from HPV-HNSCC patient # 21): 25.7
HPV16 DNA measured by CLIA HPV test (HPV DNA; saliva sample from HPV-HNSCC patient # 22): 2.68
HPV16 DNA measured by CLIA HPV test (HPV DNA; saliva sample from HPV-HNSCC patient # 23): 1.82
HPV16 DNA measured by CLIA HPV test (HPV DNA; saliva sample from HPV-HNSCC patient # 24): 14.4
HPV16 DNA measured by CLIA HPV test (HPV DNA; saliva sample from HPV-HNSCC patient # 25): 2.76
HPV16 DNA measured by CLIA HPV test (HPV DNA; saliva sample from HPV-HNSCC patient # 27): 2.17
sensitivity under 100 cells (HPV-16 [4]; 32 HPV-HNSCC tumor samples): 96.9%
sensitivity under single cells (HPV-16 [4]; 32 HPV-HNSCC tumor samples, 6.6 pg DNA): 28.1%
sensitivity under 10 cells (HPV-16 [4]; 32 HPV-HNSCC tumor samples, 66 pg DNA): 68.7%
Threshold of tumor cell numbers for HPV-16 detection (HPV-16 [4]; Sample # 1): 60.0 tumor cells
Threshold of tumor cell numbers for HPV-16 detection (HPV-16 [4]; Sample # 2): 150.0 tumor cells
Threshold of tumor cell numbers for HPV-16 detection (HPV-16 [4]; Sample # 3): 30.0 tumor cells
Threshold of tumor cell numbers for HPV-16 detection (HPV-16 [4]; Sample # 4): 6.0 tumor cells
Threshold of tumor cell numbers for HPV-16 detection (HPV-16 [4]; Sample # 5): 6.0 tumor cells
Threshold of tumor cell numbers for HPV-16 detection (HPV-16 [4]; Sample # 6): 15.0 tumor cells
Threshold of tumor cell numbers for HPV-16 detection (HPV-16 [4]; Sample # 7): 30.0 tumor cells
Threshold of tumor cell numbers for HPV-16 detection (HPV-16 [4]; Sample # 8): 30.0 tumor cells
Threshold of tumor cell numbers for HPV-16 detection (HPV-16 [4]; Sample # 9): 1.2 tumor cells
Threshold of tumor cell numbers for HPV-16 detection (HPV-16 [4]; Sample # 10): 6.0 tumor cells
Threshold of tumor cell numbers for HPV-16 detection (HPV-16 [4]; Sample # 11): 30.0 tumor cells
Threshold of tumor cell numbers for HPV-16 detection (HPV-16 [4]; Sample # 12): 30.0 tumor cells
Threshold of tumor cell numbers for HPV-16 detection (HPV-16 [4]; Sample # 13): 6.0 tumor cells
Threshold of tumor cell numbers for HPV-16 detection (HPV-16 [4]; Sample # 14): 6.0 tumor cells
Threshold of tumor cell numbers for HPV-16 detection (HPV-16 [4]; Sample # 15): 6.0 tumor cells
Threshold of tumor cell numbers for HPV-16 detection (HPV-16 [4]; Sample # 16): 6.0 tumor cells
Threshold of tumor cell numbers for HPV-16 detection (HPV-16 [4]; Sample # 17): 1.2 tumor cells
Threshold of tumor cell numbers for HPV-16 detection (HPV-16 [4]; Sample # 18): 0.2 tumor cells
Threshold of tumor cell numbers for HPV-16 detection (HPV-16 [4]; Sample # 19): 1.2 tumor cells
Threshold of tumor cell numbers for HPV-16 detection (HPV-16 [4]; Sample # 20): 3.0 tumor cells
Threshold of tumor cell numbers for HPV-16 detection (HPV-16 [4]; Sample # 21): 0.6 tumor cells
Threshold of tumor cell numbers for HPV-16 detection (HPV-16 [4]; Sample # 22): 0.3 tumor cells
Threshold of tumor cell numbers for HPV-16 detection (HPV-16 [4]; Sample # 23): 1.2 tumor cells
Threshold of tumor cell numbers for HPV-16 detection (HPV-16 [4]; Sample # 24): 0.6 tumor cells
Threshold of tumor cell numbers for HPV-16 detection (HPV-16 [4]; Sample # 25): 0.3 tumor cells
Threshold of tumor cell numbers for HPV-16 detection (HPV-16 [4]; Sample # 26): 0.6 tumor cells
Threshold of tumor cell numbers for HPV-16 detection (HPV-16 [4]; Sample # 27): 0.6 tumor cells
Threshold of tumor cell numbers for HPV-16 detection (HPV-16 [4]; Sample # 28): 0.6 tumor cells
Threshold of tumor cell numbers for HPV-16 detection (HPV-16 [4]; Sample # 29): 1.0 tumor cells
Threshold of tumor cell numbers for HPV-16 detection (HPV-16 [4]; Sample # 30): 15.0 tumor cells
Threshold of tumor cell numbers for HPV-16 detection (HPV-16 [4]; Sample # 31): 0.6 tumor cells
Threshold of tumor cell numbers for HPV-16 detection (HPV-16 [4]; Sample # 32): 15.0 tumor cells
Sensitivity, 1 cell (HPV-16 [4]; [8]): 0.281*
Sensitivity, 3 cells (HPV-16 [4]; [8]): 0.438
Sensitivity, 10 cells (HPV-16 [4]; [8]): 0.688
Sensitivity, 30 cells (HPV-16 [4]; [8]): 0.938*
Sensitivity, 100 cells (HPV-16 [4]; [8]): 0.969*
